Consider 19 sequences from the Immune Epitope Database (IEDB).

In general, Kd refers to a measure of binding affinity in units of concentration.

Some targets named below: HLA-A*23:01; HLA-A*26:01; HLA-A*29:02; HLA-A*30:02; HLA-A*24:02; HLA-A*01:01; HLA-A*03:01; HLA-A*30:01.
What all share (assay): IEDB peptide-MHC binding, purified MHC/competitive/radioactivity; filed as Kd, often an IC50 or EC50 that approximates it; ≥ and ≤ were set here for values at or beyond the usual limits of such assays
For the next assay, the target named is HLA-A*33:01. As to conditions: source organism: Mammarenavirus brazilense.
Another assay addresses HLA-A*68:01. As to conditions: source organism: Mammarenavirus brazilense.
Another assay has as its target HLA-A*31:01. As to conditions: source organism: Mammarenavirus brazilense.
Where [1] appears, read: source organism: SARS coronavirus Tor2.
Where [2] appears, read: source organism: Mammarenavirus guanaritoense.
The mark [3] stands for this setting: source organism: Dengue virus 1 Brazil/97-11/1997.
Where [4] appears, read: source organism: Mammarenavirus brazilense.
Setting [5] is: source organism: Lassa virus Josiah.
Setting [6] is: source organism: Dengue virus 2 Jamaica/1409/1983.
Setting [7] is: source organism: Mammarenavirus lassaense.

DYAEISFML: the Kd was not below 90700 nM in the assay with HLA-A*23:01 (setting [1]); not below 68900 nM in the assay with HLA-A*26:01 (setting [1]); 100 nM with HLA-A*29:02 (setting [1]); 440 nM in the assay with HLA-A*30:02 (setting [1]); not below 105000 nM with HLA-A*24:02 (setting [1]); not below 22500 nM with HLA-A*01:01 (setting [1]).
For the sequence INYCLDFLF, the Kd with HLA-A*23:01 (setting [2]) is 56.5 nM; with HLA-A*29:02 (setting [2]), 125 nM; with HLA-A*24:02 (setting [2]), 1270 nM.
As for HMVVKSALL, the Kd with HLA-A*23:01 (setting [1]) was 13900 nM; in the assay with HLA-A*26:01 (setting [1]), 13100 nM; in the assay with HLA-A*29:02 (setting [1]) it was 511 nM; in the assay with HLA-A*30:02 (setting [1]), 954 nM; with HLA-A*24:02 (setting [1]) it was 12200 nM; with HLA-A*01:01 (setting [1]), 15100 nM.
Turning to TYHPNCINCL, the Kd was 1150 nM in the assay with HLA-A*23:01 (setting [1]); not below 69700 nM in the assay with HLA-A*26:01 (setting [1]); 5580 nM with HLA-A*29:02 (setting [1]); not below 37200 nM with HLA-A*30:02 (setting [1]); 663 nM in the assay with HLA-A*24:02 (setting [1]); not below 70400 nM with HLA-A*01:01 (setting [1]).
Consider EHSWNADLY, for which the dissociation constant Kd is not below 77800 nM with HLA-A*23:01 (setting [1]); 4410 nM in the assay with HLA-A*26:01 (setting [1]); 295 nM in the assay with HLA-A*29:02 (setting [1]); 45.1 nM with HLA-A*30:02 (setting [1]); not below 77600 nM with HLA-A*24:02 (setting [1]); not below 69400 nM with HLA-A*01:01 (setting [1]).
In the case of GFELTSMKY, the Kd in the assay with HLA-A*23:01 (setting [1]) was not below 77800 nM; with HLA-A*26:01 (setting [1]), not below 81500 nM; with HLA-A*29:02 (setting [1]), 132 nM; in the assay with HLA-A*30:02 (setting [1]), 1840 nM; in the assay with HLA-A*24:02 (setting [1]), not below 77600 nM; with HLA-A*01:01 (setting [1]) it was 1750 nM.
Take TWSIHAHHQW: the values for the Kd with HLA-A*23:01 (setting [3]) and with HLA-A*24:02 (setting [3]) were 950 nM and 1080 nM, respectively.
Turning to YYSLLMPIL, the Kd in the assay with HLA-A*23:01 (setting [1]) is not below 43900 nM; with HLA-A*26:01 (setting [1]), 13700 nM; with HLA-A*29:02 (setting [1]) it was not below 75000 nM; in the assay with HLA-A*30:02 (setting [1]) it was not below 81100 nM; in the assay with HLA-A*24:02 (setting [1]), not below 77600 nM; in the assay with HLA-A*01:01 (setting [1]), not below 78100 nM.
As to LYALITEQF, the Kd in the assay with HLA-A*23:01 (setting [4]) was determined as 2.79 nM; with HLA-A*29:02 (setting [4]), 731 nM; with HLA-A*24:02 (setting [4]), 16.8 nM.
In the case of ICLSGDGWPY, the Kd in the assay with HLA-A*23:01 (setting [5]) is not below 70000 nM; with HLA-A*26:01 (setting [5]) it was not below 69700 nM; with HLA-A*29:02 (setting [5]) it was 371 nM; with HLA-A*30:02 (setting [5]), 678 nM; with HLA-A*24:02 (setting [5]), not below 70300 nM; with HLA-A*01:01 (setting [5]) it was 6320 nM.
In the case of SSQRDTILK, the Kd is not below 24200 nM with HLA-A*33:01; 270 nM with HLA-A*03:01 (setting [4]); 388 nM with HLA-A*68:01; 2570 nM in the assay with HLA-A*31:01; 46.5 nM with HLA-A*30:01 (setting [4]).
For VYKEGTFHTM, the Kd with HLA-A*24:02 (setting [6]) is 14.7 nM.
Consider SLNITTLRAV, for which the Kd in the assay with HLA-A*23:01 (setting [7]) was not below 70000 nM; in the assay with HLA-A*26:01 (setting [7]), not below 69700 nM; with HLA-A*29:02 (setting [7]) it was not below 71400 nM; with HLA-A*30:02 (setting [7]), 1700 nM; with HLA-A*24:02 (setting [7]) it was not below 70300 nM; with HLA-A*01:01 (setting [7]), not below 70400 nM.
In the case of HHANEYRQY, the Kd was not below 77800 nM in the assay with HLA-A*23:01 (setting [1]); not below 102000 nM with HLA-A*26:01 (setting [1]); 12700 nM in the assay with HLA-A*29:02 (setting [1]); 6960 nM with HLA-A*30:02 (setting [1]); not below 33400 nM with HLA-A*24:02 (setting [1]); not below 78100 nM in the assay with HLA-A*01:01 (setting [1]).
Take EWSVATFYLF: the Kd came to 0.0328 nM with HLA-A*23:01 (setting [1]); 17.4 nM with HLA-A*29:02 (setting [1]); 1730 nM in the assay with HLA-A*30:02 (setting [1]); 27.2 nM in the assay with HLA-A*24:02 (setting [1]); 1160 nM with HLA-A*01:01 (setting [1]).
TSSGDATTAY: the Kd in the assay with HLA-A*23:01 (setting [1]) was not below 70000 nM; with HLA-A*26:01 (setting [1]), 646 nM; with HLA-A*29:02 (setting [1]) it was 98.8 nM; with HLA-A*30:02 (setting [1]), 606 nM; with HLA-A*24:02 (setting [1]) it was not below 70300 nM; in the assay with HLA-A*01:01 (setting [1]), 63.8 nM.
Take RTTWSIHAK: the Kd in the assay with HLA-A*03:01 (setting [6]) is 6.99 nM; in the assay with HLA-A*30:01 (setting [6]), 80.9 nM.
Regarding LYIAENGEL, the figures for the Kd with HLA-A*23:01 (setting [4]), with HLA-A*29:02 (setting [4]) and in the assay with HLA-A*24:02 (setting [4]) were 247 nM, not below 20700 nM and 1680 nM, respectively.
Take LLEIKDKEQY: the Kd is not below 70000 nM with HLA-A*23:01 (setting [1]); not below 82800 nM in the assay with HLA-A*26:01 (setting [1]); 3530 nM in the assay with HLA-A*29:02 (setting [1]); 1270 nM in the assay with HLA-A*30:02 (setting [1]); 10900 nM with HLA-A*24:02 (setting [1]); 936 nM in the assay with HLA-A*01:01 (setting [1]).
